Test results from patent US5567602A, “Recombinant production of chymase” (Arris Pharmaceutical Corporation, priority 1992, dated 1996).
Where two headings read alike, the source gives them in different places. Each block holds one molecule with its values, some of them ahead of it.

Assays:
human heart chymase = conditions: none = 100, cited from earlier work
[1] = biological target: T1, recombinant human chymase (Homo sapiens, UniProt P23946); experiment: Inhibitor profile of recombinant human chymase (residual activity, chromogenic substrate); format: biochemical; conditions: none = 100
T1 construct: made in house; host or cells: Escherichia coli (XL1-Blue)
T1 sequence (P23946 22-247): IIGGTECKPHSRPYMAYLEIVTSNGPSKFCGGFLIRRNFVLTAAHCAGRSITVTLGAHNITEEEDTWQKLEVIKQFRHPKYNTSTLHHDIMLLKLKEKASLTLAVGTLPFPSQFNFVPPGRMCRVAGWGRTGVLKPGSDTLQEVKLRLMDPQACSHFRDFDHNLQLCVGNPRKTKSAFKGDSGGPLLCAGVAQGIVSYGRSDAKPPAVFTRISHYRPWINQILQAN
Description: (§1) Assays for chymase activity were carried out in cuvettes, which contained, in 1 ml, 80 μg of the chromogenic substrate succinyl-L-PheProPhe-p-nitroanilide in 30 mM Tris-HCl, pH 8.0, 1M NaCl. Samples were placed in a spectrophotometer and set to zero absorbance. The assay was initiated by mixing in approximately 10 μg of protein and absorbance at 405 nm was monitored as a function of time. Chymase activity was determined from the specific activity (110 absorbance units/mg/min at 37° C.; Caughey et al., 1988, Bioch. Biophys. Acta 952:142-149) and the slope of the absorbance vs. time plot.
(§2) MBP-chymase fusion protein, recovered in the insoluble fraction from cell extracts, was resuspended in lysis buffer containing β-mercaptoethanol and 8M urea. After sonication to completely resuspend the pellet, the sample was dialyzed against 10 mM sodium phosphate buffer, pH 7.2 overnight. Insoluble material was removed by centrifugation and the fusion protein was then purified by amylose affinity chromatography as above. The fusion protein was eluted from the resin with maltose and dialyzed against 20 mM Tris-HCl, pH 8.0, 100 mM NaCl. The protein was then exchanged into reducing buffer #1 (0.1M Tris-HCl, pH 8.7, 1 mM EDTA, 6M guanidine-HCl, 0.15M NaCl, 0.3 M reduced glutathione) and incubated at room temperature for 2 hours. The sample was diluted 100-fold into oxidizing buffer #2 (0.1 Tris-HCl, pH 8.0, 1 mM EDTA, 0.15M NaCl, 0.3 mM oxidized glutathione), stirred for 2-48 hr at room temperature, and concentrated 100-fold to 285 μg/ml by ultrafiltration using an Amicon stirred flow cell. Factor Xa cleavage reactions were carried out at room temperature overnight. Ten μl samples were periodically removed and assayed for chymase activity in the presence or absence of various proteinase inhibitors. Several control experiments were also performed as described below.

Chymase = conditions: general statement, no concentration; cited from earlier work
[2] = Assay for chymase proteolytic activity on chromogenic substrate; format: biochemical; conditions: for proteolytic activity on chromogenic substrate: not refolded, chymase substrate succinyl-L-PheProPhe-p-nitroanilide; for activity released by Factor Xa: refolded fusion protein
Description: as §1, §2

[3] = test system: airway submucosal gland cells; conditions: cited from earlier work
[4] = at 37° C.; Caughey et al., 1988; cited from earlier work

Molecule: CC(=O)N[C@@H](CC(C)C)C(=O)N[C@@H](CC(C)C)C(=O)N[C@H](C=O)CCCNC(=N)N [LEU, leupeptin]
- % Residual Activity, Heart Chymase (human heart chymase; 10 μM inhibitor): 106%
- remaining activity at 10 µM ([1]; 10 μM inhibitor, read-out: % Residual Activity, Recombinant Enzyme): 100%

Molecule: O=S(=O)(F)Cc1ccccc1 [PMSF, phenylmethylsulfonyl fluoride]
- % Residual Activity, Heart Chymase (human heart chymase; 1 mM inhibitor): 0%
- % Residual Activity, Recombinant Enzyme ([1]; 1 mM inhibitor): 0%

B1: SBTI: soybean trypsin inhibitor (protein)
chain: DFVLDNEGNPLENGGTYYILSDITAFGGIRAAPTGNERCPLTVVQSRNELDKGIGTIISSPYRIRFIAEGHPLSLKFDSFAVIMLCVGIPTEWSVVEDLPEGPAVKIGENKDAMDGWFRLERVSDDEFNNYKLVFCPQQAEDDKCGDIGISIDHDDGTRRLVVSKNKPLVVQFQKLDKESL
- % Residual Activity, Heart Chymase (human heart chymase; 1 μM inhibitor): 0%
- % Residual Activity, Heart Chymase (human heart chymase; 100 μM inhibitor): 0%
- % Residual Activity, Recombinant Enzyme ([1]; 25 μM inhibitor): 0%
- inhibition of chymase (Chymase): inhibited

B3: Chymase: serine protease with chymotrypsin-like substrate specificity of mast cells (protein)
chain: T1 sequence (P23946 22-247)
- secretagogue activity [3]: extremely potent secretagogue
- specific activity [4]: 110 absorbance units/mg/min

More lines, main results first:

- remaining activity at 100 µM ([1]; 100 μM inhibitor, read-out: % Residual Activity, Recombinant Enzyme): 0%
Molecule: Cc1ccc(S(=O)(=O)N[C@@H](Cc2ccccc2)C(=O)CCl)cc1 [TPCK, ptosyl-L-phenylalanine chloromethyl ketone]
- % Residual Activity, Heart Chymase (human heart chymase; 1 mM inhibitor): 30%

- proteolytic activity on chromogenic substrate [2]: no detectable proteolytic activity
B2: MBP-chymase: catalytic domain of human mast cell chymase fused to the maltose binding protein of Escherichia coli, wild type chymase amino acid sequence (protein)
chain: IEGRIIGGTECKPHSRPYMAYLEIVTSNGPSKFCGGFLIRRNFVLTAAHCAGRSITVTLGAHNITEEEDTWQKLEVIKQFRHPKYNTSTLHHDIMLLKLKEKASLTLAVGTLPFPSQFNFVPPGRMCRVAGWGRTGVLKPGSDTLQEVKLRLMDPQACSHFRDFDHNLQLCVGNPRKTKSAFKGDSGGPLLCAGVAQGIVSYGRSDAKPPAVFTRISHYRPWINQILQAN
- enzymatic activity on the chymase substrate (control experiments) ([2]; Factor Xa alone, or fusion protein in the absence of Factor Xa): did not result in detectable enzymatic activity

- activity released by Factor Xa ([2]; at 2 hours): 2.7 µg/mL
- activity released by Factor Xa ([2]; at 5 hours, remained at this level for up to 24 hours): 4.6 µg/mL
B4: recombinant human chymase: enzymatically active, recombinant human chymase released by Factor Xa cleavage of the refolded fusion protein (protein)
chain: T1 sequence (P23946 22-247)
- enzymatic activity of released recombinant human chymase ([2]; refolded fusion protein cleaved by Factor Xa, hydrolysis of the chymase substrate): enzymatically active

- proteolytic activity on chromogenic substrate [2]: inactive as a protease
B5: Free chymase: Free chymase, released by Factor Xa cleavage of the fusion protein (protein)
chain: T1 sequence (P23946 22-247)
